Data on 1 molecule can be found in publication PMC2120133 (The Journal of Cell Biology, 1994).

This experiment deals with Gal4 DNA-binding domain-Nup1p carboxy-terminal fusion (pSWB11) (yeast, UniProt P20676 655-1076). Description: two-hybrid.
Sequence of Gal4 DNA-binding domain-Nup1p carboxy-terminal fusion (pSWB11) (P20676 655-1076): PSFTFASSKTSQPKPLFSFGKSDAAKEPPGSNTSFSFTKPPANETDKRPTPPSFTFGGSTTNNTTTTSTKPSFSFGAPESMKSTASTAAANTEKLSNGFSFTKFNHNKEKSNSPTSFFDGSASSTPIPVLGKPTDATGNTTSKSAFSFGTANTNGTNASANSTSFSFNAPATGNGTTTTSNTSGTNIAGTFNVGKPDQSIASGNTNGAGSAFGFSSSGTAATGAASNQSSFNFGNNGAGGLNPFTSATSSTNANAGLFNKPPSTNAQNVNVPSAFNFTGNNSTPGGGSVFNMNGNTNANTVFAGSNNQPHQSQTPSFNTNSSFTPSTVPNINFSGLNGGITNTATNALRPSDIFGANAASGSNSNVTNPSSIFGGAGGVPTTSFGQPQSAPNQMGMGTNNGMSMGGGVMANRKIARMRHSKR

B1: Gal4 activation domain-Srp1p fusion (pSWB17) (domain or fragment, yeast, UniProt Q02821 30-542, looked up)
chain: DELRRRRDTQQVELRKAKRDEALAKRRNFIPPTDGADSDEEDESSVSADQQFYSQLQQELPQMTQQLNSDDMQEQLSATVKFRQILSREHRPPIDVVIQAGVVPRLVEFMRENQPEMLQLEAAWALTNIASGTSAQTKVVVDADAVPLFIQLLYTGSVEVKEQAIWALGNVAGDSTDYRDYVLQCNAMEPILGLFNSNKPSLIRTATWTLSNLCRGKKPQPDWSVVSQALPTLAKLIYSMDTETLVDACWAISYLSDGPQEAIQAVIDVRIPKRLVELLSHESTLVQTPALRAVGNIVTGNDLQTQVVINAGVLPALRLLLSSPKENIKKEACWTISNITAGNTEQIQAVIDANLIPPLVKLLEVAEYKTKKEACWAISNASSGGLQRPDIIRYLVSQGCIKPLCDLLEIADNRIIEVTLDALENILKMGEADKEARGLNINENADFIEKAGGMEKIFNCQQNENDKIYEKAYKIIETYFGEEEDAVDETMAPQNAGNTFGFGSNVNQQFNFN
As to B1, the “fold increase in beta-galactosidase activity” value was over 160 fold.
